The values that follow come from patent US20150344570A1 (published 2015).

Assay [1] deals with T1, FcγRIa (human, UniProt P12314 16-292).
T1 construct: extracellular domain; Soluble extracellular domain with C-terminal His tag, expressed in FreeStyle293 cells; analyte in Biacore; also called FcgRI; CD64; not shown: His tag attached to the C terminus
The assay is described as follows: SPR (Biacore), antibody captured on antigen-peptide chip, FcγRIa as analyte; binding activity relative to control GpH7-B3/GpL16-k0 (HoCon Ab) x100. On the procedure: (§1) Analysis of interaction between objective antibody and the FcγR was carried out using Biacore T100 (GE Healthcare). HBS-EP+ (GE Healthcare) was used as the running buffer, and the measurement temperature was set to 25° C. Chips produced by immobilizing the antigen peptide by the amine coupling method to a Series S Sencor Chip CM5 (GE Healthcare), or alternatively, chips produced by allowing preliminarily biotinylated antigen peptides to interact with and immobilize onto a Series S Sensor Chip SA (certified) (GE Healthcare) were used. Antibodies of interest were captured onto an antigen peptide-immobilized chip, and allowed to interact to each FcγR diluted with running buffer. To regenerate and repeatedly use the chip, the antibodies captured on the chip were washed off by reacting 10 mM glycine-HCl, pH 1.5.
T1 sequence (P12314 16-292): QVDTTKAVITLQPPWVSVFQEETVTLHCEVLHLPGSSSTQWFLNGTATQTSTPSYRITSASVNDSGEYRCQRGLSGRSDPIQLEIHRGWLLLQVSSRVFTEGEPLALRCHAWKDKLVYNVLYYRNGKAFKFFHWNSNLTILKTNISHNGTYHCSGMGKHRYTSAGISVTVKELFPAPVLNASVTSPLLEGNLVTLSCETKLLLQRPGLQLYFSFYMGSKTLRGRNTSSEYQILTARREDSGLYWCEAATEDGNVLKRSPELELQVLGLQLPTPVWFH
(In general: Surface plasmon resonance follows binding to a sensor surface in real time, without labels.)

The target in assay [2] is T2, FcγRIa (human, UniProt P12314 16-292).
T2 construct: extracellular domain; Soluble extracellular domain with C-terminal His tag, used as analyte in Biacore; also called FcgRI; 1a; not shown: His tag attached to the C terminus
The assay is described as follows: SPR (Biacore); He/Con_1a divided by He/Con_2b (binding to FcγRIa against binding to FcγRIIb). On the procedure: The heterodimerized antibodies He Abs in which one of the H chains was introduced with an alteration were assayed for their binding activities to each activating FcγR and inhibitory FcγR according to the method described in Example 4. […] The activating FcγRs in FIGS. 26, 27, 28, and 29 are FcγRIa, FcγRIIa (R), FcγRIIa (H), and FcγRIIIa, respectively.
as §1
T2 sequence (P12314 16-292): as above

The target in assay [3] is T2, FcγRIa. The assay is described as follows: SPR (Biacore), antibody captured, FcγR as analyte; relative to GpH7-A5/GpH7-B3/GpL16-k0 = 100.
A further assay has as its target T3, FcγRIIb (human, UniProt P31994 43-217).
T3 construct: extracellular domain; Soluble extracellular domain with C-terminal His tag, used as analyte in Biacore; also called FcgRIIb; 2b; not shown: His tag attached to the C terminus
T3 sequence (looked up): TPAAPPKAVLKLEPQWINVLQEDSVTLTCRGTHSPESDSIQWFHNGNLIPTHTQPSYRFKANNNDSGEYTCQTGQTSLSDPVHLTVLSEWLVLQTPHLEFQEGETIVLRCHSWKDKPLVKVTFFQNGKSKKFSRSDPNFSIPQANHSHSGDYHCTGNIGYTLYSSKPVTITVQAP
The description is as above.

B1: GpH7-B3 variant Y300_11K/GpL16-k0 (homodimerized antibody, Ho Ab) (antibody, human IgG1, kappa)
heavy: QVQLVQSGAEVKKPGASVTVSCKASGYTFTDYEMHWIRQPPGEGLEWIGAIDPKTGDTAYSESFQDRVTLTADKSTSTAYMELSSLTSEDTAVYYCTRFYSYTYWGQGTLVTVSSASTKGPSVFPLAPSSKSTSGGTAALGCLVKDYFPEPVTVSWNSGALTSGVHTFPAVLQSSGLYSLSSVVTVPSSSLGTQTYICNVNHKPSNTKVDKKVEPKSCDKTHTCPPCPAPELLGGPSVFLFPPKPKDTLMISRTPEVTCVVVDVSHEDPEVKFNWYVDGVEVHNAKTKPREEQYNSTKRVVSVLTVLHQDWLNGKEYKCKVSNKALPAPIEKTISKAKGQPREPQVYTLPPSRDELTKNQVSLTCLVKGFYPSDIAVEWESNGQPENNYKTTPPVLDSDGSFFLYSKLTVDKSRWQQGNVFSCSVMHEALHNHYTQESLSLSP
light: DIVMTQSPLSLPVTPGEPASISCQASESLVHSNRNTYLHWYLQKPGQSPQLLIYKVSNRFSGVPDRFSGSGSGTDFTLKISRVEAEDVGVYYCSQNTHVPPTFGQGTKVEIERTVAAPSVFIFPPSDEQLKSGTASVVCLLNNFYPREAKVQWKVDNALQSGNSQESVTEQDSKDSTYSLSSTLTLSKADYEKHKVYACEVTHQGLSSPVTKSFNRGEC
notes: Anti-glypican-3 IgG1 (G1d with K439E); same alteration in both H chains
Take B1: the Ho/Con_1a with FcγRIa [1] is 101 % of control (=100).

B2: GpH7-B3 variant Y300_03V/GpL16-k0 (homodimerized antibody, Ho Ab) (antibody, human IgG1, kappa)
heavy: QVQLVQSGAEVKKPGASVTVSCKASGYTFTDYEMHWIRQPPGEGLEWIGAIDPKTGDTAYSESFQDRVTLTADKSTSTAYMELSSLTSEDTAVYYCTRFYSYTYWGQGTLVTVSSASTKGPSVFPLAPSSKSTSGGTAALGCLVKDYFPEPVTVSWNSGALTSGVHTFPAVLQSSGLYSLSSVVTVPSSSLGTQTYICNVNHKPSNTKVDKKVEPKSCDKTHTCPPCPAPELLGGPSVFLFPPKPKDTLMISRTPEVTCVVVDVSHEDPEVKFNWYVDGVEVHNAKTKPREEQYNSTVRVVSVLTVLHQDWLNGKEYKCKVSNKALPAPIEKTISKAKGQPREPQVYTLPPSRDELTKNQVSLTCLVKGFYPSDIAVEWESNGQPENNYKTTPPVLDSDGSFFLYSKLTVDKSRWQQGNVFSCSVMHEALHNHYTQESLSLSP
light: B1 light
notes: as for B1
With B2, in the assay with FcγRIa [1], the Ho/Con_1a is 112 % of control (=100).

B3: GpH7-A5/GpH7-B3 variant S239_10E/GpL16-k0 (antibody, human IgG1, kappa)
heavy 1: not shown
heavy 2: not shown
light: B1 light
notes: Heterodimerized anti-glypican-3 IgG1; alteration in the GpH7-B3 chain only; also called He Ab
With B3, in the assay with FcγRIa [2], the “He_1a/2b (Ia/IIb)” value was 0.58 ratio. Also, the He/Con_1a with FcγRIa [3] was 105 % of control (=100). In the assay with FcγRIIb, the He/Con_2b is 181 % of control (=100).

B4: GpH7-B3 variant Y296_06M/GpL16-k0 (homodimerized antibody, Ho Ab) (antibody, human IgG1, kappa)
heavy: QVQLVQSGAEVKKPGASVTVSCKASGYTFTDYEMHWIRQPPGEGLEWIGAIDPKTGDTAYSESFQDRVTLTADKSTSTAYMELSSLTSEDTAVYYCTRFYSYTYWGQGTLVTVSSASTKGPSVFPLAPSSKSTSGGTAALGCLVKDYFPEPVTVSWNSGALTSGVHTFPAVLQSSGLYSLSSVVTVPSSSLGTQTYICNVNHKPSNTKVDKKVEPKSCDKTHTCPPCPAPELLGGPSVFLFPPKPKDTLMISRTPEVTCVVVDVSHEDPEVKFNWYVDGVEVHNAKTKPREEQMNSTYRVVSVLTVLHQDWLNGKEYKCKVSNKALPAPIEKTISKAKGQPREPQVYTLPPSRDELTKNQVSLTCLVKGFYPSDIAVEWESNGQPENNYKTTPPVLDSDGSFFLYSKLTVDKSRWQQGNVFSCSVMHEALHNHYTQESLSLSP
light: B1 light
notes: as for B1
Consider B4, for which the Ho/Con_1a in the assay with FcγRIa [1] is 104 % of control (=100).

B5: GpH7-B3 variant T335_20W/GpL16-k0 (homodimerized antibody, Ho Ab) (antibody, human IgG1, kappa)
heavy: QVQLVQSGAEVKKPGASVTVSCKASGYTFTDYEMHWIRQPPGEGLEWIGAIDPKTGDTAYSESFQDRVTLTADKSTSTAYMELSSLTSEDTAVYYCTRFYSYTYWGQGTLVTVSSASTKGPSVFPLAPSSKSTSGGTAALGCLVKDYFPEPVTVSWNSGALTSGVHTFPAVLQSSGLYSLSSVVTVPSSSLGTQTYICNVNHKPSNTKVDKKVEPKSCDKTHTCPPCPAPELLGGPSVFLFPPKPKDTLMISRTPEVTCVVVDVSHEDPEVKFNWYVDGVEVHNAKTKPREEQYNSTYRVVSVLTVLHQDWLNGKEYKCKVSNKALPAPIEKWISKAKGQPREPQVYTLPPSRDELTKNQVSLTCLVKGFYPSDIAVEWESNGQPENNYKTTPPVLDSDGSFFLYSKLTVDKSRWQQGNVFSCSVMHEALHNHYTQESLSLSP
light: B1 light
notes: as for B1
For the molecule B5, the Ho/Con_1a with FcγRIa [1] is 104 % of control (=100).

B6: GpH7-A5/GpH7-B3 variant S239_01G/GpL16-k0 (antibody, human IgG1, kappa)
heavy 1: not shown
heavy 2: not shown
light: B1 light
notes: as for B3
For B6, the “He_1a/2b (Ia/IIb)” value with FcγRIa [2] is 0.7 ratio. In addition, the He/Con_1a in the assay with FcγRIa [3] was 101 % of control (=100). Also, the He/Con_2b with FcγRIIb is 144 % of control (=100).

B7: GpH7-B3 variant Y300_13S/GpL16-k0 (homodimerized antibody, Ho Ab) (antibody, human IgG1, kappa)
heavy: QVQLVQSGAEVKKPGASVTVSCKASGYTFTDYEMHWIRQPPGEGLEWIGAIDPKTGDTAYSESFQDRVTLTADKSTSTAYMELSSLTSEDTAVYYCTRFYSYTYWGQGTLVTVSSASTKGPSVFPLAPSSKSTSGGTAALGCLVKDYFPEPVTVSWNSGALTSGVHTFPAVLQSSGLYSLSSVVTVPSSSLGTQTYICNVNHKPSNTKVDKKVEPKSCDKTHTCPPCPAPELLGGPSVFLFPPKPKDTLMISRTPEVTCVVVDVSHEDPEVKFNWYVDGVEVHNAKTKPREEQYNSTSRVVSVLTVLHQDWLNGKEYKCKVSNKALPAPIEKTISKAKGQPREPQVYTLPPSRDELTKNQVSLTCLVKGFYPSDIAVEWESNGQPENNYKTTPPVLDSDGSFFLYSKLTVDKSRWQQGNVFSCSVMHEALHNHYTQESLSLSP
light: B1 light
notes: as for B1
Consider B7, for which the Ho/Con_1a in the assay with FcγRIa [1] was 110 % of control (=100).

B8: GpH7-A5/GpH7-B3 variant P238_09D/GpL16-k0 (antibody, human IgG1, kappa)
heavy 1: not shown
heavy 2: not shown
light: B1 light
notes: as for B3
In the case of B8, the “He_1a/2b (Ia/IIb)” value with FcγRIa [2] was determined as 0.43 ratio. Also, in the assay with FcγRIa [3], the He/Con_1a is 96 % of control (=100). The He/Con_2b with FcγRIIb is 221 % of control (=100).

B9: GpH7-B3 variant Y296_20W/GpL16-k0 (homodimerized antibody, Ho Ab) (antibody, human IgG1, kappa)
heavy: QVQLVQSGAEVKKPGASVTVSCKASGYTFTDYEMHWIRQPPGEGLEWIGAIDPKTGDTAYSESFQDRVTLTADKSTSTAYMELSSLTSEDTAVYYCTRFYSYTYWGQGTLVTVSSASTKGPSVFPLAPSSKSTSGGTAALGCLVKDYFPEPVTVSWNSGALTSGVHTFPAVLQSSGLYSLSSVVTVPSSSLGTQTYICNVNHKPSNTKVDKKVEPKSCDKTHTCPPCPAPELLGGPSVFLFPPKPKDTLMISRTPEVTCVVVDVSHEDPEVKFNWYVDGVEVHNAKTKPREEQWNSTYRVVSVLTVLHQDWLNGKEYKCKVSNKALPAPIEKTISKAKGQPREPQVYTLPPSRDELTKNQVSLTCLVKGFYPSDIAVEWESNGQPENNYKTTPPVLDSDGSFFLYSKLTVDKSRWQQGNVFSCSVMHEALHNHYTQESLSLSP
light: B1 light
notes: as for B1
As for B9, the Ho/Con_1a in the assay with FcγRIa [1] was 106 % of control (=100).

B10: GpH7-B3 variant Y300_09D/GpL16-k0 (homodimerized antibody, Ho Ab) (antibody, human IgG1, kappa)
heavy: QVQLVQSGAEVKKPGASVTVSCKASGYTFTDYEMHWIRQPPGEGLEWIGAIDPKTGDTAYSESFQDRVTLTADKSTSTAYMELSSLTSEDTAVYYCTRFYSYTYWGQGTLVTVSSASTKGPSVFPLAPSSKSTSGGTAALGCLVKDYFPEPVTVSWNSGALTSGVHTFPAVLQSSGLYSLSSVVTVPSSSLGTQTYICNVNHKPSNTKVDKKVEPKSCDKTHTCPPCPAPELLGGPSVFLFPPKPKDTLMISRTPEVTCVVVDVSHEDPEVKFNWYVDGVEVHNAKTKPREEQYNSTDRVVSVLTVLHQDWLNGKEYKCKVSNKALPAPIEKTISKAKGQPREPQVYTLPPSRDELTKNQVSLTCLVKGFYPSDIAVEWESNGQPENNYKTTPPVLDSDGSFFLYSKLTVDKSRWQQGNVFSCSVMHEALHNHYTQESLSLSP
light: B1 light
notes: as for B1
For B10, the Ho/Con_1a with FcγRIa [1] was 111 % of control (=100).

B11: GpH7-B3 variant Y300_10E/GpL16-k0 (homodimerized antibody, Ho Ab) (antibody, human IgG1, kappa)
heavy: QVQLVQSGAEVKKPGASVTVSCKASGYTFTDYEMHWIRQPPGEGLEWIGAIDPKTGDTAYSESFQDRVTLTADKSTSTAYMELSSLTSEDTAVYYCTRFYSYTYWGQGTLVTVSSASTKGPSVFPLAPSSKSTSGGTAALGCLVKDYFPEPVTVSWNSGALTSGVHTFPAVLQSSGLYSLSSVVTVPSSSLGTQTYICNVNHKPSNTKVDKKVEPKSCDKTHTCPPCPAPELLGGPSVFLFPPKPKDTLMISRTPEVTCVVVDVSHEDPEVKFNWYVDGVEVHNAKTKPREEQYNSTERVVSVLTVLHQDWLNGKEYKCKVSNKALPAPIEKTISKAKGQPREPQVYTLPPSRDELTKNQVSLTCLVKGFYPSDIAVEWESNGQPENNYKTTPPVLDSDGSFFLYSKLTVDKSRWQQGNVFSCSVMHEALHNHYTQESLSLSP
light: B1 light
notes: as for B1
Turning to B11, in the assay with FcγRIa [1], the Ho/Con_1a is 111 % of control (=100).

B12: GpH7-A5/GpH7-B3 variant P238_04F/GpL16-k0 (antibody, human IgG1, kappa)
heavy 1: not shown
heavy 2: not shown
light: B1 light
notes: as for B3
As to B12, the “He_1a/2b (Ia/IIb)” value with FcγRIa [2] turned out to be 0.32 ratio. Moreover, the He/Con_1a with FcγRIa [3] is 101 % of control (=100). In the assay with FcγRIIb, the He/Con_2b was 312 % of control (=100).

B13: GpH7-A5/GpH7-B3 variant S239_08L/GpL16-k0 (antibody, human IgG1, kappa)
heavy 1: not shown
heavy 2: not shown
light: B1 light
notes: as for B3
B13: the “He_1a/2b (Ia/IIb)” value in the assay with FcγRIa [2] worked out at 0.71 ratio. In the assay with FcγRIa [3], the He/Con_1a was 99.8 % of control (=100). Further, the He/Con_2b in the assay with FcγRIIb is 140 % of control (=100).

B14: GpH7-B3 variant Y296_13S/GpL16-k0 (homodimerized antibody, Ho Ab) (antibody, human IgG1, kappa)
heavy: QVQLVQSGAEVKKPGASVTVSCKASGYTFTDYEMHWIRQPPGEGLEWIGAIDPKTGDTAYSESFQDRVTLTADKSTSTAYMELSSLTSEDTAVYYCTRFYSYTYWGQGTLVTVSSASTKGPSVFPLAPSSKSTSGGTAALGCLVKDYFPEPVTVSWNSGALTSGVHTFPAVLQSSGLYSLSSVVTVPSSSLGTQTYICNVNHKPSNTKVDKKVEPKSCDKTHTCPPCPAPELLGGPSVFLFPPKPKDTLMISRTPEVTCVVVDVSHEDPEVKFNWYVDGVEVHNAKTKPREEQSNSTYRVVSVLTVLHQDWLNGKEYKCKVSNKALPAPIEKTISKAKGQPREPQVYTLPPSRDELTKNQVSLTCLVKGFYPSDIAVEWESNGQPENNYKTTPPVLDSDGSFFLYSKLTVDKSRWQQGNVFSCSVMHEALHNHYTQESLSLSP
light: B1 light
notes: as for B1
With B14, the Ho/Con_1a with FcγRIa [1] was 105 % of control (=100).

B15: GpH7-A5/GpH7-B3 variant P238_15Y/GpL16-k0 (antibody, human IgG1, kappa)
heavy 1: not shown
heavy 2: not shown
light: B1 light
notes: as for B3
For the molecule B15, the “He_1a/2b (Ia/IIb)” value in the assay with FcγRIa [2] amounted to 0.46 ratio. For the same molecule, the He/Con_1a in the assay with FcγRIa [3] was 101 % of control (=100). Moreover, in the assay with FcγRIIb, the He/Con_2b is 218 % of control (=100).

B16: GpH7-A5/GpH7-B3 variant P238_08L/GpL16-k0 (antibody, human IgG1, kappa)
heavy 1: not shown
heavy 2: not shown
light: B1 light
notes: as for B3
On to B16, for which the “He_1a/2b (Ia/IIb)” value in the assay with FcγRIa [2] worked out at 0.49 ratio. The He/Con_1a with FcγRIa [3] is 101 % of control (=100). Moreover, the He/Con_2b with FcγRIIb is 204 % of control (=100).

B17: GpH7-B3 variant T335_19Q/GpL16-k0 (homodimerized antibody, Ho Ab) (antibody, human IgG1, kappa)
heavy: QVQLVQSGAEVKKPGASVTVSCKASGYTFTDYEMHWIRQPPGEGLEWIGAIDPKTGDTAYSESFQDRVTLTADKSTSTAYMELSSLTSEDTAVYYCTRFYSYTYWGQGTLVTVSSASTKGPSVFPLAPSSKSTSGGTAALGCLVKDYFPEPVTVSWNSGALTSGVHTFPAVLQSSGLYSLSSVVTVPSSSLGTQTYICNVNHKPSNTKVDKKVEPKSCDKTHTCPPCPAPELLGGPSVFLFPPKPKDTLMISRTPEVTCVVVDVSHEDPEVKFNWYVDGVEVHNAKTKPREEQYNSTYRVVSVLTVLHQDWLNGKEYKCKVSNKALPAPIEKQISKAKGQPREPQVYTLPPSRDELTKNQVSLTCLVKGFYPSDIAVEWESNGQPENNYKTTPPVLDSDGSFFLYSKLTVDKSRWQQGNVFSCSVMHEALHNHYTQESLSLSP
light: B1 light
notes: as for B1
Consider B17, for which, in the assay with FcγRIa [1], the Ho/Con_1a is 105 % of control (=100).

B18: GpH7-A5/GpH7-B3 variant P238_10E/GpL16-k0 (antibody, human IgG1, kappa)
heavy 1: not shown
heavy 2: not shown
light: B1 light
notes: as for B3
On to B18, for which the “He_1a/2b (Ia/IIb)” value in the assay with FcγRIa [2] was found to be 0.44 ratio. Further, the He/Con_1a with FcγRIa [3] is 102 % of control (=100). In the assay with FcγRIIb, the He/Con_2b is 232 % of control (=100).

B19: GpH7-B3 variant Y296_19Q/GpL16-k0 (homodimerized antibody, Ho Ab) (antibody, human IgG1, kappa)
heavy: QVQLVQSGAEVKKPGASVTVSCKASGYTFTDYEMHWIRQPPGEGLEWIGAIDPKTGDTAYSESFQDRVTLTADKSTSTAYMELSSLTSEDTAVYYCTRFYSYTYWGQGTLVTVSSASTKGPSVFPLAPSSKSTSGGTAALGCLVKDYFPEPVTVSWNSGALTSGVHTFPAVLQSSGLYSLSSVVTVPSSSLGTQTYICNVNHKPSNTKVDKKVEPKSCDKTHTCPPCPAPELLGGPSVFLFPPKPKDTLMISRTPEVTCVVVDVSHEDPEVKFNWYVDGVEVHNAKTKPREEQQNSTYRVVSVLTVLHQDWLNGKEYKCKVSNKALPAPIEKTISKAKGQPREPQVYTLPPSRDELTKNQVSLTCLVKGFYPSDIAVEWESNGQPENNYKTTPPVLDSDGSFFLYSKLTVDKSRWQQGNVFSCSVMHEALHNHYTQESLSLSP
light: B1 light
notes: as for B1
With B19, the Ho/Con_1a with FcγRIa [1] was 104 % of control (=100).
